Results taken from patent publication US20120121633A1, “HIV CD4 BINDING SITE BASED COVALENT IMMUNOGEN COMPOSITIONS” (priority 2010, published 2012).

B1: 2G9: murine IgM MAb from KLH-E-416-433 immunization (antibody, V domains shown)
VH: QVQLKQSGPGLVQPSQSLSITCTVSGFSLTSYGVHWVRQSPGKGLEWLGVIWSGGSTDYNAAFISRLSISKDNSKSQVFFKMNSLQANDTAIYYCARNKDYGSSYDYYAMDYWGQGTSVTVSS
VL: DIQMTQTTSSLSASLGDRVTISCRASQDISNYLNWYQQKPDGTVKLLIYYTSRLHSGVPSRFSGSGSGTDYSLTISNLEQEDIATYFCQQGNTLPTFGGGTKLEIKRA
B2: 4B2-F8: murine IgG MAb from KLH-E-416-433 immunization (antibody, V domains shown)
VH: QVQLQQSGAELVRPGASVKLSCMALGYTFTDYEIHWVKQTPVHGLEWIGGFHPGSGGGAYSQKFKGKATLIADKSSSIAYMEVISLTSEDSAVYYCTRFRYSSFAMVYWGQGTSVTVSS
VL: DIVMSQSPSSLAVSAGEKVTMSCKSSQSLLNSRTRKNYLAWYQQKPGQSPKLLIYWASTRESGVPDRFTGSGSGTDFTLTINSVQAEDLAVYYCKQSYNLWTFGGGTKLEIK
B3: 9F3-A7: murine IgG MAb from KLH-E-416-433 immunization (antibody, V domains shown)
VH: QVQLQQSGAELVRPGASVKLSCKALGYTFTDYEMHWVKQTPVHGLEWIGGIYPGSGGTAYNQKFKGKATLTADKSSSTAYMELSSLTSEDSAVYYCTKFRFSSFAMDYWGQGTSVTVSS
VL: DIVMSQSPSSLAVSAGEKVTMRCKSSQSLLNSRTRKNYLAWYQQKPGQSPKLLIYWASTRESGVPDRFTGSGSGTDFTLTISSVQAEDLAVYYCKQFYNLWTFGGGTKLEIK

Assays:
[1] = test system: subtype C clinical HIV isolate ZA009 (97ZA009); experiment: HIV neutralization, PBMC/clinical isolate assay, strain ZA009; assay type: cell-based; settings: MAb clones from KLH-E-416-433 immunized mice
From the text: FIG. 12. […] A, 416-433 and 301-324 epitope sequences from the autologous subtype B strain of IgA donor 2866 and heterologous subtype C strain ZA009 used for neutralization assays. […] Host cells, PBMCs; virus isolate, R5-dependent subtype C strain ZA009. IC50, 50% neutralization concentration. Dashed lines, 95% confidence limits. […] Pooled IgA (I19-21 donors 2857, 2866 and 2886) was fractionated on agarose-conjugated as in FIG. 8. […] Host cells, PBMCs; virus, strain ZA009.
FIG. 19. […] Abs were fractionated by affinity chromatography on agarose-conjugated E-416-433. Plotted are the neutralization potencies (IC50) expressed per unit mass Ab content (sum of IgM, IgG and IgA measured by ELISA using class-specific Abs as in FIG. 8). IC50 computed from dose-response curves using the CCR5-dependent subtype C strain 97ZA009. […] Noncovalently and covalently bound fractions were recovered, respectively, by pH 2.7 elution and 2-PAM elution.
Neutralization of clinical HIV isolates obtained from the NIH AIDS Reagent Repository is tested using phytohemagglutinin-activated human PBMCs pooled from 4-12 donors.^44 The virus is incubated with the test Ab sample in quadruplicate to ensure reliability. The reaction mixtures are added to PBMCs in 96-well plates. Infection is monitored using p24 enzyme-immunoassay kits. […] The stock HIV strain ZA009 is used to infect PBMC in the presence of the Ab. Infection proceeds overnight and cells are washed and resuspended in RPMI media containing the Ab. After 7 days the cell-free supernatant is harvested and used to infect a new aliquot of stimulated PBMCs (second passage). The virus is passaged 10 times with a gradual (2-fold) increase in Ab concentration with each passage. A virus aliquot is saved at each passage for sequencing.^112 Viral supernatants are titered at each passage using a fresh batch of PBMCs. The gp120 gene will sequenced following RT-PCR as described.^113

[2] = biological target: BSA-E-416-433 (Human immunodeficiency virus type 1 group M subtype B, UniProt P04578, C418S/K429E); settings: inhibited by gp120, Bt-E-416-433 and sCD4, not by Sh416-433 or ovalbumin
Experimental: FIG. 21. […] IgM 2G9 binding to BSA-E-416-433 (70 ng/well) was tested in the absence or presence of increasing concentrations of Bt-E-416-433, sCD4, gp120, control Sh416-433 and control ovalbumin (OVA). Y-axis values are computed as follows 100x[A490 with competitor/A490 without competitor]. Methods as in ref 2.

Row | Molecule | HIV neutralizing activity [1] | specificity of binding shown by competitive inhibition [2]
1 | B1 | neutralizing activity | Specificity for 421-433 CD4BS sequence
2 | B2 | neutralizing activity | –
3 | B3 | neutralizing activity | –
